Molecular target: Envelope (E) protein of tick-borne encephalitis virus strain Sofjin-Chumakov (Far-Eastern subtype), (Tick-borne encephalitis virus, strain Sofjin-Chumakov) (UniProt P07720)
Assay: cryo-EM structure

How did the stoichiometry N turn out when “Envelope (E) protein of tick-borne encephalitis virus strain Sofjin-Chumakov (Far-Eastern subtype), (from UniProt P07720) (natural protein)” was run?
The stoichiometry N was 2.

Reference: article PMC10930109
